Experiment [1] deals with IRF3, activated in vitro by virus-activated mitochondria (P5) and cytosolic extract (UniProt Q14653). As to the kind of experiment: SEC. In general terms: SEC sorts molecules by how far they enter the pores of the column.
The target of another experiment is IRF3 (UniProt Q14653). As to the kind of experiment: Superdex-200 gel filtration after cell-free reaction. The settings on record: reference: reaction without virus-activated mitochondria; sites S385,S386,S396.

IRF3, sequence (Q14653 whole entry, change not shown): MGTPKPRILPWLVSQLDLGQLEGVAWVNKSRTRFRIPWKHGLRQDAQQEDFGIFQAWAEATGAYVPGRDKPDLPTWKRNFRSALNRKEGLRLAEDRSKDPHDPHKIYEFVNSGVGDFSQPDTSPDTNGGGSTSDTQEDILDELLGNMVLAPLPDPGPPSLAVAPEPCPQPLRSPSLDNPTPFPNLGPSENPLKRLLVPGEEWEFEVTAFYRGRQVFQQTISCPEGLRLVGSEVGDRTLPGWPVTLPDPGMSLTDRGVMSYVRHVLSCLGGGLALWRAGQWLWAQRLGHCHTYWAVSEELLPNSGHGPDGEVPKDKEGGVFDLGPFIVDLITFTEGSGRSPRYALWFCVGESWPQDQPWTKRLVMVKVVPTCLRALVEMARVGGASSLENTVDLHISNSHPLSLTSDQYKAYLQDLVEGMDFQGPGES

One may read the stoichiometry N as the number of molecules, sites or subunits per partner or assembly. For the substance “IRF3, activated in vitro by virus-activated mitochondria (P5) and cytosolic extract (from UniProt Q14653 1-427) (natural protein)”, the stoichiometry N in experiment [1] is 2.

On to “IRF3 (from UniProt Q14653) reaction with virus-activated mitochondria (P5)”, for which, in the experiment with IRF3, the “other: apparent molecular mass” value was “gained; reference 150”.

Values taken from publication PMC2779157.
